Laboratory results reported in patent US20140322196A1 (priority 2011, published 2014).
Read-outs that look alike come from different tables or passages of the source.

B1: bLf: Lactoferrin from bovine milk, purchased from Morinaga Milk Industries, deprived of endotoxin (protein, UniProt P24627 20-708, looked up)
Lactotransferrin: APRKNVRWCTISQPEWFKCRRWQWRMKKLGAPSITCVRRAFALECIRAIAEKKADAVTLDGGMVFEAGRDPYKLRPVAAEIYGTKESPQTHYYAVAVVKKGSNFQLDQLQGRKSCHTGLGRSAGWIIPMGILRPYLSWTESLEPLQGAVAKFFSASCVPCIDRQAYPNLCQLCKGEGENQCACSSREPYFGYSGAFKCLQDGAGDVAFVKETTVFENLPEKADRDQYELLCLNNSRAPVDAFKECHLAQVPSHAVVARSVDGKEDLIWKLLSKAQEKFGKNKSRSFQLFGSPPGQRDLLFKDSALGFLRIPSKVDSALYLGSRYLTTLKNLRETAEEVKARYTRVVWCAVGPEEQKKCQQWSQQSGQNVTCATASTTDDCIVLVLKGEADALNLDGGYIYTAGKCGLVPVLAENRKSSKHSSLDCVLRPTEGYLAVAVVKKANEGLTWNSLKDKKSCHTAVDRTAGWNIPMGLIVNQTGSCAFDEFFSQSCAPGADPKSRLCALCAGDDQGLDKCVPNSKEKYYGYTGAFRCLAEDVGDVAFVKNDTVWENTNGESTADWAKNLNREDFRLLCLDGTRKPVTEAQSCHLAVAPNHAVVSRSDRAAHVKQVLLHQQALFGKNGKNCPDKFCLFKSETKNLLFNDNTECLAKLGGRPTYEEYLGTEYVTAIANLKKCSTSPLLEACAFLTR
B2: C-lobe: bovine lactoferrin C-lobe as named in the text, without saying which of the two fragments of Table 2 (protein)
chain: YTRVVWCAVGPEEQKKCQQWSQQSGQNVTCATASTTDDCIVLVLKGEADALNLDGGYIYTAGKCGLVPVLAENRKSSKHSSLDCVLRPTEGYLAVAVVKKANEGLTWNSLKDKKSCHTAVDRTAGWNIPMGLIVNQTGSCAFDEFFSQSCAPGADPKSRLCALCAGDDQGLDKCVPNSKEKYYGYTGAFRCLAEDVGDVAFVKNDTVWENTNGESTADWAKNLNREDFRLLCLDGTRKPVTEAQSCHLAVAPNHAVVSRSDRAAHVKQVLLHQQALFGKNGKNCPDKFCLFKSETKNLLFNDNTECLAKLGGRPTYEEYLGTEYVTAIANLKKCSTSPLLEACAFLTR
modifications: bovine lactoferrin C-lobe peptide

How the values were obtained:
A/PR/8/34 H1N1 = type: cell-based, Influenza A virus
[1] = tested on: Avian 29/05/06 inactivated vaccine H5N1; type: cell-based, Influenza A virus; conditions: Avian 29/05/06 H5N1 inactivated vaccine
[2] = tested on: A/Turkey/Italy/2676/99 H7N1; type: cell-based, Influenza A virus
[3] = tested on: all tested virus strains (Influenza A H1N1, H3N2, H5N1, H7N1)
[4] = tested on: A/Parma/5/06 (Wisconsin-like) H3N2; type: cell-based, Influenza A virus
[5] = tested on: A/Wisconsin (67/05) inactivated subunits, vaccine H3N2; type: cell-based, Influenza A virus
[6] = tested on: A/Roma-ISS/2/08 (Brisbane-like) (oseltamivir-sensitive) H1N1; type: cell-based, Influenza A virus
[7] = tested on: A/Solomon (3/06) inactivated subunits, vaccine H1N1; type: cell-based, Influenza A virus
[8] = tested on: HA and NA surface antigens of Solomon (H1N1) and Wisconsin (H3N2) subunit vaccines; type: binding, Influenza A virus
[9] = tested on: SW X-179A 1089/09 inactivated subunits, vaccine H1N1; type: cell-based, Influenza A virus
[10] = tested on: Influenza virus A/RomaISS/2/08; type: binding
[11] = tested on: Influenza A/H1N1 (A/Roma-ISS/2/08 and A/Parma/24/09) and A/H3N2 (A/Parma/05/06); type: cell-based, Influenza A virus

Molecule | HI titre (A/PR/8/34 H1N1) | HI titre [1] | HI titre [2] | substance-induced agglutination or erythrocyte lysis ([3]; turkey red blood cells, in the hemagglutination assays) | HI titre [4] | HI titre [5] | HI titre [6] | HI titre [7] | bLf binding to viral envelope proteins (in words) [8] | HI titre [9] | virus binding to bLf ([10]; pH 4) | virus binding to bLf ([10]; pH 5) | virus binding to bLf ([10]; pH 6) | effect on virus replication / infection (in words) [11] | inhibition of viral hemagglutination (in words) [3]
B1 | 3 nM | 2.9 pM | 93.1 fM | Neither bLf-induced agglutination nor visual evidence of erythrocyte lysis was observed | 3 nM | 0.3 pM | 6 nM | 5 pM | binds to a viral protein of apparent molecular mass of 28 kDa | 46.5 fM | 47.2+/−1.4% | 52.9+/−9.7% | 34.1+/−4.1% | markedly inhibited | –
B2 | – | – | – | – | – | – | – | – | – | – | – | – | – | highly inhibited | marked inhibition of viral hemagglutination
